Common to all, as to assay: ITC; RPN13 Pru in the cell (15.6, 20.57 or 16 μM), RPN2 (940–953) in the syringe; 25°C; 20 mM sodium phosphate, 50 mM NaCl, pH 6.0, with 10 mM βME (reducing) or without (non-reducing); one-site fit
Conditions in all cases: both partners purified
(In general: ITC needs no label: the signal is the heat of the interaction.)

In experiment [1] the target is T1, RPN13 Pru (1–150), reduced (UniProt Q16186 1-150).
T1 construct: also called RPN13 (1–150); redu RPN13^Pru; source: E. coli BL21(DE3) pLysS, purified (Talon resin, PreScission cleavage, Superdex 75); not shown: His6, N-terminal, cleaved
T1 sequence (Q16186 1-150): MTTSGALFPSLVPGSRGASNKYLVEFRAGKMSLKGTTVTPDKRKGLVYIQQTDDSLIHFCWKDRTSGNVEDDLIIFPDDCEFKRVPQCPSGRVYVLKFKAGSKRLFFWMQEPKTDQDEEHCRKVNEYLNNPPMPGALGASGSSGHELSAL

Experiment [2] has as its target T2, oxidized RPN13 Pru (1–150) (UniProt Q16186 1-150, oxidized with 0.05% H2O2; the residues are not told).
T2 construct: RPN13 Pru domain, residues 1-150; also called oxi RPN13^Pru; oxi-RPN13^Pru; source: E. coli BL21(DE3) pLysS, purified; oxidized with 0.05% H2O2 on ice for 10 min; not shown: His6, N-terminal, cleaved

Experiment [3] addresses T3, oxidized RPN13 Pru (1–150) after incubation with TXNL1^Trx (UniProt Q16186 1-150, oxidized with 0.05% H2O2, then restored by a 3-fold molar excess of TXNL1 Trx; the residues are not told).
T3 construct: RPN13 Pru domain, residues 1-150; source: E. coli BL21(DE3) pLysS, purified; not shown: His6, N-terminal, cleaved

T2 sequence (Q16186 1-150): as above
T3 sequence (Q16186 1-150): as above

B1: RPN2 (940–953) (peptide, UniProt Q99460 940-953, looked up)
chain: QEPEPPEPFEYIDD
notes: Eluted from the resin as GST-RPN2 (940–953); also called RPN2 peptide; GST-RPN2 (940–953); source: E. coli BL21(DE3) pLysS, purified (glutathione resin, eluted with reduced glutathione, Superdex 75)
With B1, the Kd turned out to be 12.4 ± 5.29 nM in experiment [1], 40 ± 15.3 nM in experiment [2] and 18.9 ± 5.7 nM in experiment [3].

A word on the Kd: it is the constant that tells how readily two partners part at equilibrium. A lower Kd goes with a tighter complex.

The record behind these values is publication PMC13580404 (Molecular cell, 2026).
